# Results published in patent publication US7220554B2, “Methods for identifying inhibitors” (priority 2003, dated 2007).
# B1: APOBEC3G-luciferase (protein)
# chain: MKPHFRNTVERMYRDTFSYNFYNRPILSRRNTVWLCYEVKTKGPSRPPLDAKIFRGQVYSELKYHPEMRFFHWFSKWRKLHRDQEYEVTWYISWSPCTKCTRDMATFLAEDPKVTLTIFVARLYYFWDPDYQEALRSLCQKRDGPRATMKIMNYDEFQHCWSKFVYSQRELFEPWNNLPKYYILLHIMLGEILRHSMDPPTFTFNFNNEPWVRGRHETYLCYEVERMHNDTWVLLNQRRGFLCNQAPHKHGFLEGRHAELCFLDVIPFWKLDLDQDYRVTCFTSWSPCFSCAQEMAKFISKNKHVSLCIFTARIYDDQGRCQEGLRTLAEAGAKISIMTYSEFKHCWDTFVDHQGCPFQPWDGLDEHSQDLSGRLRAILQNQENKLSMVTDAKNIKKGPAPFYPLEDGTAGEQLHKAMKRYALVPGTIAFTDAHIEVDITYAEYFEMSVRLAEAMKRYGLNTNHRIVVCSENSLQFFMPVLGALFIGVAVAPANDIYNERELLNSMGISQPTVVFVSKKGLQKILNVQKKLPIIQKIIIMDSKTDYQGFQSMYTFVTSHLPPGFNEYDFVPESFDRDKTIALIMNSSGSTGLPKGVALPHRTACVRFSHARDPIFGNQIIPDTAILSVVPFHHGFGMFTTLGYLICGFRVVLMYRFEEELFLRSLQDYKIQSALLVPTLFSFFAKSTLIDKYDLSNLHEIASGGAPLSKEVGEAVAKRFHLPGIRQGYGLTETTSAILITPEGDDKPGAVGKVVPFFEAKVVDLDTGKTLGVNQRGELCVRGPMIMSGYVNNPEATNALIDKDGWLHSGDIAYWDEDEHFFIVDRLKSLIKYKGYQVAPAELESILLQHPNIFDAGVAGLPDDDAGELPAAVVVLEHGKTMTEKEIVDYVASQVTTAKKLRGGVVFVDEVPKGLTGKLDARKIREILIKAKKGGKIAV
# modifications: Synthetic construct human APOBEC3G fused to luciferase
# B2: APOBEC3G-Myc: fusion of human APOBEC3G with Myc epitope and 6×His tag, SEQ ID NO: 2 (protein)
# chain: MKPHFRNTVERMYRDTFSYNFYNRPILSRRNTVWLCYEVKTKGPSRPPLDAKIFRGQVYSELKYHPEMRFFHWFSKWRKLHRDQEYEVTWYISWSPCTKCTRDMATFLAEDPKVTLTIFVARLYYFWDPDYQEALRSLCQKRDGPRATMKIMNYDEFQHCWSKFVYSQRELFEPWNNLPKYYILLHIMLGEILRHSMDPPTFTFNFNNEPWVRGRHETYLCYEVERMHNDTWVLLNQRRGFLCNQAPHKHGFLEGRHAELCFLDVIPFWKLDLDQDYRVTCFTSWSPCFSCAQEMAKFISKNKHVSLCIFTARIYDDQGRCQEGLRTLAEAGAKISIMTYSEFKHCWDTFVDHQGCPFQPWDGLDEHSQDLSGRLRAILQNQENFEQKLISEEDLNMHTGHHHHHH
# modifications: Synthetic construct human APOBEC3G fused to Myc
# Legend:
# HIV-gpt(Δvif) = assay: Titers of HIV-gpt(Δvif) virions made in 293T or COS7 cells, infectivity in HeLa-CD4 cells; assay type: cell-based, HIV-1; conditions: for antiviral activity of chimera: titer of virions from 293T cells in the absence of Vif: FIG. 12A
# Description: (§1) To analyze the antiviral activity of pcDNA3.1-APOBEC3G-Myc, human 293T and African green monkey COS7 cells were transiently cotransfected with pcDNA3.1-APOBEC3G-Myc in the presence of vectors for expression of HIV-gpt(wt) or HIV-gpt(Δvif) [these are derivatives of wild-type (wt) or vif deleted (Δvif) HIV-1 with the bacterial gpt gene replacing the viral env gene; Madani & Kabat, J. Virol. […] 74, 5982–5987, 2000]. Virions were subsequently harvested from the culture media and analyzed their infectivities in HeLa-CD4 (clone HI-J) cells. […] Similar results were obtained with owl monkey kidney cells. Thus, HIV-1 Vif neutralizes human APOBEC3G-Myc in both human and monkey cells.
# HIV-1 encoded proteins = assay: Immunoblotting of HIV-1-encoded proteins (Gag, Vif) in cotransfected producer cells; assay type: cell-based
# Description: Expression vectors: pHIV-gpt(wt) and its derivative pHIV-gpt(Δvif) were previously described (Madani & Kabat, J. Virol. 72, 10251–10255, 1998; Page et al., J Virol 64, 5270–5276, 1990; Madani & Kabat, J. Virol. 74, 5982–5987, 2000). pcDNA3.1-Vif was donated by D. Gabuzda (Dana-Farber Cancer Institute, Harvard, Boston, Mass.). Rev-dependent plasmids for expression of the Vif mutants Δ2, Δ5, Δ6, Δ7, Δ9, Δ10, Δ12 and Δ13 (Simon et al., J. Virol. 73, 2675–2681, 1999) were provided by M. Malim (Medical Research Council, Cambridge, UK) and were coexpressed with pHIV-gpt(Δvif). APOBEC3G cDNA was cloned from H9 cells (nonpermissive) by reverse transcriptase-PCR (Barnes, Proc. Natl. Acad. Sci. USA 91, 2216–2220, 1994; Sambrook et al., Molecular Cloning. A Laboratory Manual, Chapter 14, 14.5–14.34., CSHL Press, Cold Spring Harbor, 1989) using primers complementary to the 5′ and 3′ ends of APOBEC3G coding region (Sheehy et al., Nature 418, 646–650, 2002) (upstream primer, 5′-[…]-3′ (SEQ ID NO: 15) containing an XhoI restriction site [underlined]; downstream primer, 5′-[…]-3′ (SEQ ID NO: 16) containing a SfuI restriction site [underlined]). […] Virus-containing fractions were detected by immunoblotting using HIV Immunoglobulin serum (AIDS Research & Reference Reagent Program, Division of AIDS, NIAID, NIH: contributed by NABI and NHLBI). […]
# HIV-gpt(wt) = assay: Titers of HIV-gpt(wt) virions made in 293T or COS7 cells, infectivity in HeLa-CD4 cells; assay type: cell-based, HIV-1; conditions: producer cells 293T and COS7 cotransfected
# Description: as §1
Molecule,antiviral activity of chimera: titer of virions from 293T cells in the absence of Vif (HIV-gpt(Δvif)),decrease of titers of HIV-gpt(Δvif) virions (HIV-gpt(Δvif); producer cells 293T and COS7 cotransfected),synthesis of HIV-1 encoded proteins in the producer cells or their packaging into virions (HIV-1 encoded proteins),expression of Vif (HIV-1 encoded proteins; FIGS. 3A and 3B),effect on titers of HIV-gpt(wt) (HIV-gpt(wt))
B1,antiviral activity only in the absence of Vif,,,,
B2,low titer,25–100 fold,no significant or reproducible effect,no effect,no effect
